Laboratory results as given in paper PMC12375015.

Molecular target: Cas7 of the PseCAST TniQ-Cascade (QCascade) complex (Pseudoalteromonas (Tn7016 transposon))
Assay: cryo-EM structure

## Cas7 of the PseCAST TniQ-Cascade (QCascade) complex (natural protein)
  stoichiometry N: 6
